Experimental data: PMC12416549 (2024)
Numbering of substitutions follows the chain as printed. Numbers in names are those of the source. Each block holds one binder with its values, some of them ahead of it.

Molecular target: T1, TNFR1 (Homo sapiens, UniProt P19438)
T1 chain: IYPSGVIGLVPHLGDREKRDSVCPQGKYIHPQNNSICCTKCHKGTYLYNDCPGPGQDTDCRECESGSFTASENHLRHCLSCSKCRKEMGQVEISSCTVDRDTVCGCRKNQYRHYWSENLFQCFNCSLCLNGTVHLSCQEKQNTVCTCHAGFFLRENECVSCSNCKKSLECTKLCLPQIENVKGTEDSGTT
Assay: yeast display SC50

apparent Kd (screen): 0.446 nM
B1: H78F (designed binder)
chain: MTLQELLREEALRRAEAEAFRYALELLAEKFPEQKEYLLDLAEEIESQIRSLSGVDVEDVRKFLDKEWAWVKELLAEFPAELAEVEAARAARLAELRAEVEAKVAA

apparent Kd (screen): 0.539 nM
B2: A76C (designed binder)
chain: B1 chain with A76C, F78H

apparent Kd (screen): 8.56 nM
B3: I45G (designed binder)
chain: B1 chain with I45G, F78H

apparent Kd (screen): 0.49 nM
B4: E84L (designed binder)
chain: B1 chain with F78H, E84L

apparent Kd (screen): 0.869 nM
B5: E44I (designed binder)
chain: B1 chain with E44I, F78H

apparent Kd (screen): 7.78 nM
B6: F31P (designed binder)
chain: B1 chain with F31P, F78H

apparent Kd (screen): 0.718 nM
B7: A19T (designed binder)
chain: B1 chain with A19T, F78H

apparent Kd (screen): 0.49 nM
B8: Y22K (designed binder)
chain: B1 chain with Y22K, F78H

apparent Kd (screen): 10.4 nM
B9: L6T (designed binder)
chain: B1 chain with L6T, F78H

apparent Kd (screen): 0.593 nM
B10: E58I (designed binder)
chain: B1 chain with E58I, F78H

apparent Kd (screen): 18.3 nM
B11: A28D (designed binder)
chain: B1 chain with A28D, F78H

apparent Kd (screen): 0.718 nM
B12: T2P (designed binder)
chain: B1 chain with T2P, F78H

apparent Kd (screen): 0.539 nM
B13: E25Q (designed binder)
chain: B1 chain with E25Q, F78H

apparent Kd (screen): 0.539 nM
B14: V100E (designed binder)
chain: B1 chain with F78H, V100E

apparent Kd (screen): 1.16 nM
B15: T2W (designed binder)
chain: B1 chain with T2W, F78H

apparent Kd (screen): 1.69 nM
B16: E44M (designed binder)
chain: B1 chain with E44M, F78H

apparent Kd (screen): 0.593 nM
B17: Y22N (designed binder)
chain: B1 chain with Y22N, F78H

apparent Kd (screen): 0.539 nM
B18: E16T (designed binder)
chain: B1 chain with E16T, F78H

apparent Kd (screen): 0.539 nM
B19: F31M (designed binder)
chain: B1 chain with F31M, F78H

apparent Kd (screen): 0.653 nM
B20: K66F (designed binder)
chain: B1 chain with K66F, F78H

apparent Kd (screen): 0.446 nM
B21: E101P (designed binder)
chain: B1 chain with F78H, E101P

apparent Kd (screen): 0.79 nM
B22: E9I (designed binder)
chain: B1 chain with E9I, F78H

apparent Kd (screen): 0.593 nM
B23: A80R (designed binder)
chain: B1 chain with F78H, A80R

apparent Kd (screen): 0.653 nM
B24: V104A (designed binder)
chain: B1 chain with F78H, V104A

apparent Kd (screen): 0.49 nM
B25: A91G (designed binder)
chain: B1 chain with F78H, A91G

apparent Kd (screen): 0.718 nM
B26: E86I (designed binder)
chain: B1 chain with F78H, E86I

apparent Kd (screen): 0.593 nM
B27: A11D (designed binder)
chain: B1 chain with A11D, F78H

apparent Kd (screen): 1.16 nM
B28: V55A (designed binder)
chain: B1 chain with V55A, F78H

apparent Kd (screen): 1.69 nM
B29: L82N (designed binder)
chain: B1 chain with F78H, L82N

apparent Kd (screen): 0.446 nM
B30: A19V (designed binder)
chain: B1 chain with A19V, F78H

apparent Kd (screen): 0.49 nM
B31: E58N (designed binder)
chain: B1 chain with E58N, F78H

apparent Kd (screen): 0.593 nM
B32: E18T (designed binder)
chain: B1 chain with E18T, F78H

apparent Kd (screen): 0.79 nM
B33: L7P (designed binder)
chain: B1 chain with L7P, F78H

apparent Kd (screen): 0.593 nM
B34: E46N (designed binder)
chain: B1 chain with E46N, F78H

apparent Kd (screen): 0.653 nM
B35: D59I (designed binder)
chain: B1 chain with D59I, F78H

apparent Kd (screen): 0.653 nM
B36: K66N (designed binder)
chain: B1 chain with K66N, F78H

apparent Kd (screen): 0.956 nM
B37: L12H (designed binder)
chain: B1 chain with L12H, F78H

apparent Kd (screen): 0.869 nM
B38: A94R (designed binder)
chain: B1 chain with F78H, A94R

apparent Kd (screen): 0.539 nM
B39: R89Y (designed binder)
chain: B1 chain with F78H, R89Y

apparent Kd (screen): 1.05 nM
B40: A106T (designed binder)
chain: B1 chain with F78H, A106T

apparent Kd (screen): 1.05 nM
B41: E86N (designed binder)
chain: B1 chain with F78H, E86N

apparent Kd (screen): 0.446 nM
B42: Y22C (designed binder)
chain: B1 chain with Y22C, F78H

apparent Kd (screen): 0.718 nM
B43: A88F (designed binder)
chain: B1 chain with F78H, A88F

apparent Kd (screen): 0.718 nM
B44: A83Y (designed binder)
chain: B1 chain with F78H, A83Y

apparent Kd (screen): 0.869 nM
B45: R89M (designed binder)
chain: B1 chain with F78H, R89M

apparent Kd (screen): 0.539 nM
B46: R14G (designed binder)
chain: B1 chain with R14G, F78H

apparent Kd (screen): 5.31 nM
B47: E10T (designed binder)
chain: B1 chain with E10T, F78H

apparent Kd (screen): 0.79 nM
B48: Q34F (designed binder)
chain: B1 chain with Q34F, F78H

apparent Kd (screen): 0.653 nM
B49: S53Q (designed binder)
chain: B1 chain with S53Q, F78H

apparent Kd (screen): 0.539 nM
B50: A69R (designed binder)
chain: B1 chain with A69R, F78H

apparent Kd (screen): 0.593 nM
B51: A76E (designed binder)
chain: B1 chain with A76E, F78H

apparent Kd (screen): 0.49 nM
B52: R14H (designed binder)
chain: B1 chain with R14H, F78H

apparent Kd (screen): 6.43 nM
B53: F63C (designed binder)
chain: B1 chain with F63C, F78H

apparent Kd (screen): 2.73 nM
B54: D56F (designed binder)
chain: B1 chain with D56F, F78H

apparent Kd (screen): 0.49 nM
B55: E46Q (designed binder)
chain: B1 chain with E46Q, F78H

apparent Kd (screen): 12.5 nM
B56: G54M (designed binder)
chain: B1 chain with G54M, F78H

apparent Kd (screen): 12.5 nM
B57: I49D (designed binder)
chain: B1 chain with I49D, F78H

apparent Kd (screen): 0.49 nM
B58: E29K (designed binder)
chain: B1 chain with E29K, F78H

apparent Kd (screen): 0.252 nM
B59: R13G (designed binder)
chain: B1 chain with R13G, F78H
